US6469155 (UNIVERSITA DEGLI STUDI DI BOLOGNA, dated 2002)

B1: HSV-1 glycoprotein D purified from HSV-1-infected BHK cells (ligand)
chain: KYALVDASLKMADPNRFRGKDLPVLDQLTDPPGVRRVYHIQAGLPDPFQPPSLPITVYYAVLERACRSVLLNAPSEAPQIVRGASEDVRKQPYNLTIAWFRMGGNCAIPITVMEYTECSYNKSLGACPIRTQPRWNYYDSFSAVSEDNLGFLMHAPAFETAGTYLRLVKINDWTEITQFILEHRAKGSCKYALPLRIPPSACLSPQAYQQGVTVDSIGMLPRFIPENQRTVAVYSLKIAGWHGPKAPYTSTLLPPELSETPNATQPELAPEDPEDSALLEDPVGTVAPQIPPNWHIPSIQDAATPYHPPATPNNMGLIAGAVGGSLLAALVICGIVYWMRRHTQKAPKRIRLPHIREDDQPSSHQPLFY
notes: also called gD; HSV gD

Assays:
[1] = target: B1; assay: ELISA, gD immobilized, detection with anti-human IgG-peroxidase
BSA = target: T1, BSA (UniProt P02769 25-607); assay: ELISA on immobilized gD
T1 construct: Unrelated control molecule
T1 sequence (P02769 25-607 limits assumed): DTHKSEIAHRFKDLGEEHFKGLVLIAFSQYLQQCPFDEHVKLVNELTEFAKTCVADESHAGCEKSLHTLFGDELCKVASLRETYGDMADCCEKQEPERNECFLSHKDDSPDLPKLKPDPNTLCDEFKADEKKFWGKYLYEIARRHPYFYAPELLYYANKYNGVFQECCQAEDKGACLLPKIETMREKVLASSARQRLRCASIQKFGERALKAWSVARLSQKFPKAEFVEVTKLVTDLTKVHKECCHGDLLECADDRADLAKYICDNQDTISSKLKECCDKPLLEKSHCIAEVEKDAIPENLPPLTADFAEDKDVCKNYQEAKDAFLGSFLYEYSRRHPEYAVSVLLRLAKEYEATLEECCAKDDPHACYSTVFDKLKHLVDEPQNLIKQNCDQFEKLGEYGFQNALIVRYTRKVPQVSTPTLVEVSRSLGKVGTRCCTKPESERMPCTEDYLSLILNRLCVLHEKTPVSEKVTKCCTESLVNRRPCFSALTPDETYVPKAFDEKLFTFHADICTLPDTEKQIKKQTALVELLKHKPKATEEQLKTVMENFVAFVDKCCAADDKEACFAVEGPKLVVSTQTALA

Binder	reduction in the level of saturable binding relative to sVCC(HIgR)-Fc [1] [%]	binding result (BSA)
sV(HIgR)-Fc (Fc fusion, Made in COS1 cells and purified on protein A; also called V1-Fc; soluble V domain of HIgR/PRR1; not shown: IgG Fc (Fc portion of human IgG1) from the Cos Fc Link (CFL) vector) QVVQVNDSMYGFIGTDVVLHCSFANPLPSVKITQVTWQKSTNGSKQNVAIYNPSMGVSVLAPYRERVEFLRPSFTDGTIRLSRLELEDEGVYICGFATFPTGNRESQLNLTVMA	~30	–
B1	–	no binding
